In paper PMC3154542 (Growth Factors (Chur, Switzerland), 2011):

B1: BMPRII (BMP receptor 2 extracellular domain linked to the human IgG Fc region) (Fc fusion, UniProt Q13873 27-150, looked up)
chain: SQNQERLCAFKDPYQQDLGIGESRISHENGTILCSKGSTCYGLWEKSKGDINLVKQGCWSHIGDPQECHYEECVVTTTPPSIQNGTYRFCCCSTDLCNVNFTENFPPPDTTPLSPPHSFNRDET
notes: BMP receptor type 2 (BMPR2, BMPRII), type II receptor, extracellular domain; printed as 'BMPRII' without '-Fc' in the list of Fc fusion proteins; also called BMPR2; BMPR-2; source: synthesized in-house
B2: recombinant human bone morphogenetic protein 13 (rhBMP13) (ligand, UniProt Q6KF10 336-455, looked up)
chain: TAFASRHGKRHGKKSRLRCSKKPLHVNFKELGWDDWIIAPLEYEAYHCEGVCDFPLRSHLEPTNHAIIQTLMNSMDPGSTPPSCCVPTKLTPISILYIDAGNNVVYKQYEDMVVESCGCR
notes: bone morphogenetic protein 13 (BMP13, also known as GDF6), human, mature form; homodimer by non-reducing SDS-PAGE
B3: recombinant human bone morphogenetic protein 12 (rhBMP12) (ligand, UniProt Q7Z4P5 322-450, looked up)
chain: TALAGTRTAQGSGGGAGRGHGRRGRSRCSRKPLHVDFKELGWDDWIIAPLDYEAYHCEGLCDFPLRSHLEPTNHAIIQTLLNSMAPDAAPASCCVPARLSPISILYIDAANNVVYKQYEDMVVEACGCR
notes: bone morphogenetic protein 12 (BMP12, also known as GDF7), human, mature form; homodimer by non-reducing SDS-PAGE
B4: recombinant human bone morphogenetic protein 2 (rhBMP2) (ligand, UniProt P12643 283-396, looked up)
chain: QAKHKQRKRLKSSCKRHPLYVDFSDVGWNDWIVAPPGYHAFYCHGECPFPLADHLNSTNHAIVQTLVNSVNSKIPKACCVPTELSAISMLYLDENEKVVLKNYQDMVVEGCGCR
notes: bone morphogenetic protein 2, human, mature domain; homodimer by non-reducing SDS-PAGE; source: CHO cells, purified (as in Wang et al. 1990)

What was measured:
[1] = molecular target: B2; assay: BLI; receptor extracellular domain-Fc chimeras immobilised on anti-human IgG Fc biosensor tips (ForteBio Octet RED); sixfold serial dilutions of human BMPs in solution; association 10 min, dissociation 30 min; global fit to a 1:1 Langmuir model; conditions: both partners purified
[2] = molecular target: B3; assay: as above; conditions: both partners purified
[3] = molecular target: B4; assay: as above; conditions: both partners purified
[4] = molecular target: the molecule itself; assay: non-reducing SDS-PAGE; purified proteins on 12% polyacrylamide gels under non-reducing against reducing (β-mercaptoethanol) conditions, Coomassie blue staining
[5] = molecular target: T1, ALK3-Fc (activin receptor-like kinase 3 extracellular domain linked to the human IgG Fc region) (UniProt P36894 24-152); assay: BLI; receptor extracellular domain-Fc chimeras immobilised on anti-human IgG Fc biosensor tips (ForteBio Octet RED); sixfold serial dilutions of human BMPs in solution; association 10 min, dissociation 30 min; global fit to a 1:1 Langmuir model; conditions: both partners purified
T1 construct: activin receptor-like kinase 3 (ALK3), type I BMP receptor, extracellular domain; source: bought: R&D Systems
T1 sequence (P36894 24-152): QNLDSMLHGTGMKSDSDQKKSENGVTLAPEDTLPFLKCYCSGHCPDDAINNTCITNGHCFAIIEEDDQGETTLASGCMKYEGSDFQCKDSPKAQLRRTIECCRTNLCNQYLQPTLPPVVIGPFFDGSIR

[6] = molecular target: B1; assay: as above; conditions: both partners purified

| Binder | Kd [1] | koff [1] | kon [1] | Kd [2] | koff [2] | kon [2] | stoichiometry N [4] | Kd [5] | koff [5] | kon [5] | also measured |
| --- | --- | --- | --- | --- | --- | --- | --- | --- | --- | --- | --- |
| ALK6-Fc (activin receptor-like kinase 6 extracellular domain linked to the human IgG Fc region) (Fc fusion, UniProt O00238 14-126, looked up, activin receptor-like kinase 6 (ALK6), type I BMP receptor, extracellular domain; source: synthesized in-house) KKEDGESTAPTPRPKVLRCKCHHHCPEDSVNNICSTDGYCFTMIEEDDSGLPVVTSGCLGLEGSDFQCRDTPIPHQRRSIECCTERNECNKDLHPTLPPLKNRDFVDGPIHHR | 0.5 nM | 0.0038 s⁻¹ | 7.69e+06 M⁻¹ s⁻¹ | 0.6 nM | 0.004 s⁻¹ | 6.48e+06 M⁻¹ s⁻¹ |  |  |  |  | Kd [3]: 1.6 nM; koff [3]: 0.0064 s⁻¹; kon [3]: 4.28e+06 M⁻¹ s⁻¹ |
| B1 |  |  |  | 52.1 nM | 0.322 s⁻¹ | 9.26e+06 M⁻¹ s⁻¹ |  |  |  |  |  |
| B2 |  |  |  |  |  |  | 2 | 1.7 nM | 0.0084 s⁻¹ | 4.97e+06 M⁻¹ s⁻¹ | Kd [6]: 28.1 nM; koff [6]: 0.16 s⁻¹; kon [6]: 5.7e+06 M⁻¹ s⁻¹ |
| B3 |  |  |  |  |  |  | 2 | 3.4 nM | 0.0164 s⁻¹ | 5.07e+06 M⁻¹ s⁻¹ |  |
| B4 |  |  |  |  |  |  | 2 |  |  |  |  |
| ACVR2B-Fc (activin receptor type-2B extracellular domain linked to the human IgG Fc region) (Fc fusion, UniProt Q13705 19-137, looked up, activin receptor type-2B (ACVR2B), type II receptor, extracellular domain; source: synthesized in-house) SGRGEAETRECIYYNANWELERTNQSGLERCEGEQDKRLHCYASWRNSSGTIELVKKGCWLDDFNCYDRQECVATEENPQVYFCCCEGNFCNERFTHLPEAGGPEVTYEPPPTAPTLLT | 1.6 nM | 0.0041 s⁻¹ | 2.59e+06 M⁻¹ s⁻¹ | 1 nM | 0.0138 s⁻¹ | 1.29e+07 M⁻¹ s⁻¹ |  |  |  |  |  |
